Like-named read-outs stand apart in the source and are kept apart here.
How the values were obtained:
His-UBQ10 [1] = tested on: His-UBQ10
Flag-OsSPL14, Q7EXZ2 = molecular target: T1, Flag-OsSPL14, Q7EXZ2
T1 chain: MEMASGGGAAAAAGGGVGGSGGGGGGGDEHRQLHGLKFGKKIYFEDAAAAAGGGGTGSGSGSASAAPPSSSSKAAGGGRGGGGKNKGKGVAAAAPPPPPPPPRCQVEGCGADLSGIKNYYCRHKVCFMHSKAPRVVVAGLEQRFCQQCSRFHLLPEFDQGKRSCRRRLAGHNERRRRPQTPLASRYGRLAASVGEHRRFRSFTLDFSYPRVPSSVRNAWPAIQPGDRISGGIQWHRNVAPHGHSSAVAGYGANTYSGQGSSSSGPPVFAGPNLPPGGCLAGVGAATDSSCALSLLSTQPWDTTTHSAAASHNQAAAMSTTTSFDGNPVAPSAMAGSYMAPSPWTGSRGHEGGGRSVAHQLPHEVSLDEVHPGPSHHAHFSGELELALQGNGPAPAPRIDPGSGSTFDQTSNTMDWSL

[2] = molecular target: T2, full length OsUBC13 in pGADT7 (rice); experiment: yeast two-hybrid (pGBKT7 / pGADT7, strain AH109)
T2 construct: Yeast two-hybrid prey; not shown: fusion partner encoded by vector pGADT7
T2 chain: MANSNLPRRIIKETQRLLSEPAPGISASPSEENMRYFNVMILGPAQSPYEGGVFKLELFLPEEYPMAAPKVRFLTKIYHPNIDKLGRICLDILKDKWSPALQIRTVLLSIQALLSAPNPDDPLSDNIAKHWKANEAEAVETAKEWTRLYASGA
Description: Yeast two-hybrid assays. Yeast two-hybrid assays were performed as described elsewhere^{14, 21}. The full length OsOTUB1.1 cDNA and an OsOTUB1 C-terminal fragment were amplified from ZH11 cDNA and inserted into pGBKT7 (Takara Bio Inc.), while the full length OsUBC13 cDNA and an OsSPL14 C-terminal fragment were inserted into pGADT7 (Takara Bio Inc.). Each of these plasmids was validated by sequencing before being transformed into yeast strain AH109. The required β-galactosidase assays were performed according to the manufacturer's (Takara Bio Inc.) protocol. Cells harboring either an empty pGBKT7 or an empty pGADT7 were used as the negative control. The entire OsOTUB1 sequence or a C-terminal fragment were used as the bait to screen a cDNA library prepared from poly(A)-containing RNA isolated from rice young panicles (<0.2 cm in length). The experimental procedures for screening and plasmid isolation followed the manufacturer's (Takara Bio Inc.) protocol.

OsSPL14 = molecular target: T3, OsSPL14 (rice, UniProt Q7EXZ2 1-417); experiment: summary sentence of Example 1
T3 construct: also called SBP-domain transcription factor OsSPL14
T3 sequence (looked up): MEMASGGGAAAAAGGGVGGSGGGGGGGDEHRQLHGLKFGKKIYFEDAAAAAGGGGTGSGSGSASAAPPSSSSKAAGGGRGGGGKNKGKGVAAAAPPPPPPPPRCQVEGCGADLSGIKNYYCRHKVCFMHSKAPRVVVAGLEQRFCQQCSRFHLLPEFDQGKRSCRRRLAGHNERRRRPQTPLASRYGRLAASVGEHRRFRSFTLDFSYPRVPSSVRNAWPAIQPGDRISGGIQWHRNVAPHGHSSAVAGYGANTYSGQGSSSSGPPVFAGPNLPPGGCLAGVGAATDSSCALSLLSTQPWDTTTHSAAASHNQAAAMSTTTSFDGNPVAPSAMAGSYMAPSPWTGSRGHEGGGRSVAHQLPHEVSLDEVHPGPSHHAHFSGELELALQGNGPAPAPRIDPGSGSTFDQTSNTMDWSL

OsUBC13 = molecular target: T4, OsUBC13 (rice); experiment: summary sentence of Example 1
T4 construct: Used for sentences that name OsUBC13 in general or cover several assay formats; also called E2 ubiquitin-conjugating protein
T4 chain: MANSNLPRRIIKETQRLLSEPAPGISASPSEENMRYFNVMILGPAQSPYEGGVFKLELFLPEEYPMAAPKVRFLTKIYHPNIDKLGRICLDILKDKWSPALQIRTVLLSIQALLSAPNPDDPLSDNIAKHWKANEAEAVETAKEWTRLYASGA

[3] = molecular target: linear K48-linked tetra-ubiquitin (Boston Biochem)
[4] = molecular target: linear K63-linked tetra-ubiquitin (Boston Biochem)
[5] = molecular target: T5, YFP-fragment-tagged OsUBC13 (BiFC construct) (rice); experiment: BiFC in rice protoplasts
T5 construct: BiFC in rice protoplasts; not shown: YFP fragment from pSY-735-35S-cYFP-HA or pSY-736-35S-nYFP-EE
T5 chain: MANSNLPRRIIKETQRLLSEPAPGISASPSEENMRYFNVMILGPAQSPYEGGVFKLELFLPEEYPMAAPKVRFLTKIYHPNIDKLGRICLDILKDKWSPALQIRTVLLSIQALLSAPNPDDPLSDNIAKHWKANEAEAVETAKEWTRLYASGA

[6] = molecular target: T6, N-terminus of YFP-tagged deleted version of OsSPL14 (rice, UniProt Q7EXZ2 1-417); experiment: BiFC in rice protoplasts with deleted versions of OsSPL14
T6 construct: not shown: N-terminal fragment of YFP
T6 sequence (looked up): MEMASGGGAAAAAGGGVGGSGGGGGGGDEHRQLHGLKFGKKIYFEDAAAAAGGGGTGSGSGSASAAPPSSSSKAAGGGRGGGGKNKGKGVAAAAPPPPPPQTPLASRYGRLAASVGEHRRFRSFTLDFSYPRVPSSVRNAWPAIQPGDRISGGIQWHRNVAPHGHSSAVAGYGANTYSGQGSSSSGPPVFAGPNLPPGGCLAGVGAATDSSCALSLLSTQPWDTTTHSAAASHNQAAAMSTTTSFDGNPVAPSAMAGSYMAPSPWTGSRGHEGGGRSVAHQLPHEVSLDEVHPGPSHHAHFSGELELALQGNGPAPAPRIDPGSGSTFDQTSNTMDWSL
From the text: (a) BiFC assays. The N-terminus of YFP-tagged OsSPL14, SBP-domain or a deleted version of OsSPL14 was co-transformed into rice protoplasts along with the C-terminus of YFP-tagged OsOTUB1.1. Panels (from left to right): DAPI staining, YFP signal, differential interference contrast, merged channel. Scale bar: 10 μm. (b) Co-immunoprecipitation of OsOTUB1.1-GFP and OsSPL14. IB, Immunoblot; IP, immunoprecipitation. (c) Plant morphology. Scale bar: 20 cm. (d) Panicle morphology. Scale bar: 5 cm. (e) OsSPL14 transcript abundance. Transcription relative to the level of the ZH11 plants set to be one. Data shown as mean±s.e.m. (n=3). (f) The number of tillers per plant. (g) The number of grains per panicle. (h) Culm diameter. All phenotypic data were measured from the field-grown plants under normal cultivation conditions. Data in f-h shown as mean±s.e.m. (n=120). The presence of the same lowercase letter denotes a non-significant difference between means (P<0.05).

[7] = molecular target: T7, recombinant GST-OsSPL14 fusion protein, Q7EXZ2
T7 chain: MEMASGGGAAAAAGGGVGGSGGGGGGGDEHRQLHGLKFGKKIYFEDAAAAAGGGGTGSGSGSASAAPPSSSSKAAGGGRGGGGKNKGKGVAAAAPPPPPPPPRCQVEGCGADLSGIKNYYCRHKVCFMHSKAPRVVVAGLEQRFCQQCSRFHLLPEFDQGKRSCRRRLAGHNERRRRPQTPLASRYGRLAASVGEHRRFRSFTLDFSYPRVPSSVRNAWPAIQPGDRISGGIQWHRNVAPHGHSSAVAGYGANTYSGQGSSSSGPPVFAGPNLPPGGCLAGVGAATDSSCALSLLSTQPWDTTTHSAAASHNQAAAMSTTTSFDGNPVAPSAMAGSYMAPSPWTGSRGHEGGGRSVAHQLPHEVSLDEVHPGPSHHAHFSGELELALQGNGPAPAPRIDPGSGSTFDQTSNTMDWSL

His-UBQ10 [8] = molecular target: His-UBQ10; remark: listed apart in the source

MBP-WTG1^D68E;C71S;H267R
in vitro deubiquitination assay (cleavage of His-UBQ10, SDS-PAGE and anti-His blot) (His-UBQ10 [1]): MBP-WTG1^wtg1-1, MBP-WTG1^D68E;C71S;H267R and MBP did not cleave His-UBQ10

B1: Myc-OsOTUB1.1 (protein)
chain: MGGDYYHSCCGDPDPDLRAPEGPKLPYVGDKEPLSTLAAEFQSGSPILQEKIKLLGEQYDALRRTRGDGNCFYRSFMFSYLEHILETQDKAEVERILKKIEQCKKTLADLGYIEFTFEDFFSIFIDQLESVLQGHESSIGAEELLERTRDQMVSDYVVMFFRFVTSGEIQRRAEFFEPFISGLTNSTVVQFCKASVEPMGEESDHVHIIALSDALGVPIRVMYLDRSSCDAGNISVNHHDFSPEANSSDGAAAAEKPYITLLYRPGHYDILYPK
accumulation of Flag-OsSPL14 in rice protoplasts (immunoblot) (Flag-OsSPL14, Q7EXZ2): Myc-OsOTUB1 promoted the degradation of Flag-OsSPL14 only in the presence of either WT-, K63O- or K48R-linked ubiquitins | ubiquitination of Flag-OsSPL14 in rice protoplasts (anti-Flag IP, anti-HA blot) (Flag-OsSPL14, Q7EXZ2): In the presence of Myc-OsOTUB1.1, the titer of ubiquitinated Flag-OsSPL14 was clearly decreased in the presence of either K48R or K63O mutations, but it remained unaffected by the presence of either K48O or K63R mutations

B2: full length OsOTUB1.1 in pGBKT7 (enzyme)
chain: MGGDYYHSCCGDPDPDLRAPEGPKLPYVGDKEPLSTLAAEFQSGSPILQEKIKLLGEQYDALRRTRGDGNCFYRSFMFSYLEHILETQDKAEVERILKKIEQCKKTLADLGYIEFTFEDFFSIFIDQLESVLQGHESSIGAEELLERTRDQMVSDYVVMFFRFVTSGEIQRRAEFFEPFISGLTNSTVVQFCKASVEPMGEESDHVHIIALSDALGVPIRVMYLDRSSCDAGNISVNHHDFSPEANSSDGAAAAEKPYITLLYRPGHYDILYPK
notes: Yeast two-hybrid bait; not shown: fusion partner encoded by vector pGBKT7
binding result [2]: binds

B3: OsOTUB1 (enzyme)
chain: MGGDYYHSCCGDPDPDLRAPEGPKLPYVGDKEPLSTLAAEFQSGSPILQEKIKLLGEQYDALRRTRGDGNCFYRSFMFSYLEHILETQDKAEVERILKKIEQCKKTLADLGYIEFTFEDFFSIFIDQLESVLQGHESSIGAEELLERTRDQMVSDYVVMFFRFVTSGEIQRRAEFFEPFISGLTNSTVVQFCKASVEPMGEESDHVHIIALSDALGVPIRVMYLDRSSCDAGNISVNHHDFSPEANSSDGAAAAEKPYITLLYRPGHYDILYPK
notes: Used for sentences that name OsOTUB1 in general or cover several assay formats; also called NPT1; DEP5
binding result (OsSPL14): binds | binding result (OsUBC13): binds

B4: recombinant OsOTUB1.1 of the tetra-ubiquitin cleavage assay (protein)
chain: MGGDYYHSCCGDPDPDLRAPEGPKLPYVGDKEPLSTLAAEFQSGSPILQEKIKLLGEQYDALRRTRGDGNCFYRSFMFSYLEHILETQDKAEVERILKKIEQCKKTLADLGYIEFTFEDFFSIFIDQLESVLQGHESSIGAEELLERTRDQMVSDYVVMFFRFVTSGEIQRRAEFFEPFISGLTNSTVVQFCKASVEPMGEESDHVHIIALSDALGVPIRVMYLDRSSCDAGNISVNHHDFSPEANSSDGAAAAEKPYITLLYRPGHYDILYPK
cleavage of linear Lys48-linked tetra-ubiquitin (western blot, anti-ubiquitin) [3]: it showed a strong cleavage activity when presented with Lys48-linked tetra-ubiquitin | cleavage of linear Lys63-linked tetra-ubiquitin (western blot, anti-ubiquitin) [4]: it also displayed a moderate level of activity when presented with the Lys63-linked forms

B5: C-terminus of YFP-tagged OsOTUB1.1 (enzyme)
chain: MGGDYYHSCCGDPDPDLRAPEGPKLPYVGDKEPLSTLAAEFQSGSPILQEKIKLLGEQYDALRRTRGDGNCFYRSFMFSYLEHILETQDKAEVERILKKIEQCKKTLADLGYIEFTFEDFFSIFIDQLESVLQGHESSIGAEELLERTRDQMVSDYVVMFFRFVTSGEIQRRAEFFEPFISGLTNSTVVQFCKASVEPMGEESDHVHIIALSDALGVPIRVMYLDRSSCDAGNISVNHHDFSPEANSSDGAAAAEKPYITLLYRPGHYDILYPK
notes: BiFC construct expressed in rice protoplasts; also called cYFP-OsOTUB1; cYFP-OsOTUB1.1; not shown: C-terminal fragment of YFP from vector pSY-735-35S-cYFP-HA
binding result [5]: binds | binding result [6]: no binding

B6: recombinant His-OsOTUB1 fusion protein (protein)
chain: MGGDYYHSCCGDPDPDLRAPEGPKLPYVGDKEPLSTLAAEFQSGSPILQEKIKLLGEQYDALRRTRGDGNCFYRSFMFSYLEHILETQDKAEVERILKKIEQCKKTLADLGYIEFTFEDFFSIFIDQLESVLQGHESSIGAEELLERTRDQMVSDYVVMFFRFVTSGEIQRRAEFFEPFISGLTNSTVVQFCKASVEPMGEESDHVHIIALSDALGVPIRVMYLDRSSCDAGNISVNHHDFSPEANSSDGAAAAEKPYITLLYRPGHYDILYPK
degradation of GST-OsSPL14 in young panicle lysates (anti-GST western blot over time) [7]: the degradation of GST-OsSPL14 was accelerated in lysates made from ZH11-npt1 panicles in the presence of His-OsOTUB1

B7: MBP-WTG1 (protein)
chain: MGGDYYHSCCGDPDPDLRAPEGPKLPYVGDKEPLSTLAAEFQSGSPILQEKIKLLGEQYDALRRTRGDGNCFYRSFMFSYLEHILETQDKAEVERILKKIEQCKKTLADLGYIEFTFEDFFSIFIDQLESVLQGHESSIGAEELLERTRDQMVSDYVVMFFRFVTSGEIQRRAEFFEPFISGLTNSTVVQFCKASVEPMGEESDHVHIIALSDALGVPIRVMYLDRSSCDAGNISVNHHDFSPEANSSDGAAAAEKPYITLLYRPGHYDILYPK
in vitro deubiquitination assay (cleavage of His-UBQ10, SDS-PAGE and anti-His blot) (His-UBQ10 [8]): MBP-WTG1 was capable of cleaving His-UBQ10

From patent publication US20210017532A1 (INSTITUTE OF GENETICS AND DEVELOPMENTAL BIOLOGY CHINESE …, published 2021)
